From patent publication US20110117093A1 (published 2011) come the findings set out here.

Experiment [1] has as its target T1, membrane-bound B Lymphocyte Stimulator on P388 plasma membranes (mouse, UniProt Q9WU72 1-309).
T1 construct: whole, on cells
The experiment in a line: phage competition ELISA. On the technique in general: An ELISA detects its analyte on a solid surface through an enzyme-linked reagent.

Experiment [2] concerns the target T2, biotinylated B Lymphocyte Stimulator (human, soluble form) (human, UniProt Q9Y275 134-285, NHS-biotin labelled at a molar ratio of 20:1 biotin:B Lymphocyte Stimulator).
T2 construct: also called bio-B Lymphocyte Stimulator
Kind of experiment: purified scFv; inhibition of biotinylated BLyS binding to IM9 cells.

For another experiment, the target named is T3, TNF-alpha (human, UniProt P01375 77-233).
T3 construct: also called TNFα; Tumour Necrosis Factor-alpha
Kind of experiment: phage ELISA.

Experiment [3] addresses T4, B Lymphocyte Stimulator, human, soluble form (human, UniProt Q9Y275 134-285).
T4 construct: also called BLyS; immobilized B Lymphocyte Stimulator
Kind of experiment: phage ELISA.

Experiment [4] concerns the target T5, biotinylated B Lymphocyte Stimulator (soluble form) (human, UniProt Q9Y275 134-285, biotinylated with NHS-biotin (20:1 biotin:protein)).
T5 construct: The biotinylation protocol covers human or mouse protein; also called bio-B Lymphocyte Stimulator; free B Lymphocyte Stimulator
The experiment in a line: phage scFv, IM9 receptor binding inhibition. As for the experimental part: Plates were washed three times in PBST and three times in PBS, tapped dry and 50 μl of streptavidin-Delfia (Wallac) was added to each well at 1:1000 dilution in the Manufacturer's assay buffer. The plates were then incubated at room temperature for 1 hour and washed six times in Delfia wash solution (Wallac). After tapping the plates dry, 100 μl per well of Delfia enhancement solution (Wallac) was added. The plates were gently tapped to encourage micelle formation, incubated at room temperature for 10 minutes, and fluorescence read on a Wallac 1420 workstation at […].
All of the unique phage scFvs from panel 2 were assessed for their ability to inhibit B Lymphocyte Stimulator binding to its cognate receptor on IM9 cells. The biotinylation of B Lymphocyte Stimulator, maintenance of IM9 cells and receptor binding inhibition assay were performed as described in Example 3.

T1 sequence (Q9WU72 whole entry): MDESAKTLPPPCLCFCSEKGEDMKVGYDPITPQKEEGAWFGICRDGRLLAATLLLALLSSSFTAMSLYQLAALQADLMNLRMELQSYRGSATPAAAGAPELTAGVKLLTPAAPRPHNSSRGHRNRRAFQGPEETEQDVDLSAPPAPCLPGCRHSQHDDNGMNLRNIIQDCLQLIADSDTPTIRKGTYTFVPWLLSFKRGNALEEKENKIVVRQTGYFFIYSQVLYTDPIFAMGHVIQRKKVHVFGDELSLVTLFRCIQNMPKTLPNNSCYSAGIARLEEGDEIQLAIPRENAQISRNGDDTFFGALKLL
T3 sequence (P01375 77-233 limits assumed): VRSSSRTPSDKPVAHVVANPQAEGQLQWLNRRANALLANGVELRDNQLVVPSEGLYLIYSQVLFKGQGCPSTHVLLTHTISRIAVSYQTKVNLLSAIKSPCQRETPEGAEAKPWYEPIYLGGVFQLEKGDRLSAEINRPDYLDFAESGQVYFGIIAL

B1: I079B04 (scFv)
scFv: EVQLVESGGGLVQPGGSLRLSCAASGFTFSDYAMSWVRQAPGKGLEWVSAISGSGGSTSYADSVKGRFTISRDNSKNTLYLQMNSLRAEDTAVYYCASLLSDYWGRGTTVTVSSGGGGSGGGGSGGGGSQSVLTQPASVSGSPGQSITISCTGTSSDVGGYNYVSWYQQHPGKAPKLMIYEGSKRPSGVSYRFSGSKSGNTASLTISGLQAEDEADYYCSSYTTRSTRVFGGGTKLTVLG
For B1, the binding result in experiment [1] was “binds”.

B2: I068C06 (scFv)
scFv: EVQLVQSGAEVKKPGSSVKVSCKASGGTVSSRTISWVRQAPGQGLEWMGGSLPPSGAPIYAQKFQGRVAITADALTNTAFMELRSLKSDDTAVYYCARDQGRYLDLWGKGTLVTVSSGGGGSGGGGSGGGGSAQAVLTQPSSVSGAPGQRVTISCTGSRSNIGAGYDVHWYQQLPGTAPKLLIYGNSNRPSGVPDRFSGSKSGTSASLAITGLQADDEADYYCQSYDTSLRGLFGTGTKVTVLG
notes: also called I0068C06; 0068C06
In the case of B2, the IC50 (usually the concentration needed to halve the response being measured) in experiment [2] is 62 nM.

B3: I079F08 (scFv)
scFv: QMQLVQSGGGVVQPGRSLRLSCAASGFTFSSYGMHWVRQAPGKGLEWVAVISYDGSIKYYADSVKGRFTISRDNSKNTLYLQMNSLRAEDTAVYYCARYYYHSSGSDAFDIWGQGTLVTVPSGGGGSGGGGSGGGGSQSVLTQPPSASGTPGQRVTISCSGSSSNIGSNTVNWYQRLPGAAPQLLIYNNNQRPSGVPDRFSGSKSGTSASLAISGLQSEDEADYYCAAWDDSLNGWVFGGGTKLTVLG
As to B3, the binding result in experiment [1] is recorded as “binds”.

B4: I018D07 (scFv)
scFv: GVQLVQSGPEVKKPGASVIVSCTASGYTFTSYGVSWVRQAPGQGLEWIGWISAHNGQTKYAEKFQGRVTMTRNTSISTAYMELSSLRSEDTAVYYCARDGSYDILTGYYIDNYMDVWGKGTMVTVSSGGGGSGGGGSGGGGSSELTQDPAVSVALGQTVRITCQGDSLRSYYTNWFQQKPGQAPLLVVYAKNKRPSGIPDRFSGSSSGNTASLTITGAQAEDEADYYCHSRDSSGNHVLFGGGTKLTVLG
With B4, in the experiment with TNF-alpha, the binding result is listed as “no binding”.

B5: I080B01 (scFv)
scFv: QVQLVQSGAEVKKPGASVKVSCKASGYTFTNYYMHWVRQAPGQGLEWMGIINPRDVSTTYAQKFQGRATMTRDTSTSTVYMELNSLRSEDTAVYYCAREYSGYHYVEGGSYAMDVWGQGTMVTVSSGGGGSGGGGSGGGGSALSYVLTQPPSASGTPGQRVTITCSGSSSNIGNYYVNWYQQVSGTAPKLIIYRNNQRPSGVPDRFSGSKSGASASLAISGLRSEDEADYFCAAWDDSLREFVFGTGTKVTVLG
With B5, the binding result in experiment [1] is reported as “binds”.

B6: I026C04-K (scFv)
scFv: QVQLVQSGAEVKKPGSSVKVSCRASGGSFNKHAISWVRQAPGRGLEWMGGILPMYGTANYAQKFQGRVTITADKLTNTVYMDLSRLRYEDTAVYYCARELGLSIVGATTGALDMWGKGTLVTVSSGGGGSGGGGSGGGGSAQSVLTQPPSVSAAPGQKVTISCSGSSSNIGNNYVSWYQQIPGTAPKLLIYENNKRPSGIPDRFSGSKSGASATLDITGLQTGDEADYYCGTWHSSQVVFGGGTKLTVLG
On to B6, for which the binding result in experiment [3] is “binds”.

B7: I026C04-K (scFv)
scFv: QVQLVQSGAEVKKPGSSVKVSCRASGGSFNKHAISWVRQAPGRGLEWMGGILPMYGTANYAQKFQGRVTITADKLTNTVYMDLSRLRYEDTAVYYCARELGLSIVGATTGALDMWGKGTLVTVSSGGGGSGGGGSGGGGSAQSVLTQPPSVSAAPGQKVTISCSGSSSNIGNNYVSWYQQIPGTAPKLLIYENNKRPSGIPDRFSGSKSGASATLDITGLQTGDEADYYCGTWHSSQVVFGGGTKLTVLG
As to B7, in experiment [4], the binding result was “binds”.
